The source of these data is patent publication US6342477B1, “Remedies for thrombocytopenia” (Chugai Seiyaku Kabushiki Kaisha, priority 1996, dated 2002).

Type in all cases: in vivo
In experiment [1] the test system is C57Bl/6N mice. Nature of the experiment: Test for single-dose administration to mouse (peripheral platelet count). The settings on record: single dose 10 μg/kg through the tail vein. On the procedure: Nine-week old male C57Bl/6N mice as purchased from Japan Charles River Co. Ltd. were used in the experiment. (Preparation of Drug Solutions to be Administered) Human PTH(1-84) was dissolved in a citrate buffer (pH-5; containing 0.05% of Tween 80) at final concentrations of 1, 0.2 and 0.04 μg/mL so as to prepare the drug solutions to be administered.
Each of the thus prepared drug solutions and a control (citrate buffer) was administered to 15 mice through the tail vein in a volume of 10 mL/kg. […] The administration was initiated at 10 a.m.
After 3, 6 and 9 hours of the administration, five mice were picked up at random from each group of animals and blood samples were withdrawn through the orbital vein. At 10 a.m. on the same day, separate blood samples were taken from untreated mice (four in number) to obtain the pre-administration value. Peripheral corpuscle counts were obtained with an automatic corpuscle counter F-800 (TOA MEDICAL ELECTRONICS CO., LTD.)

For experiment [2], the system named is C57Bl/6N mice. Nature of the experiment: Test for daily administration to mouse (peripheral platelet count). Conditions: for platelet count: day 5. The method, then:
Nine-week old male C57Bl/6N mice as purchased from Japan Charles River Co., Ltd. were used in the experiment.
Drug solutions to be administered were prepared basically by the same procedure as in Example 1 to give drug concentrations of […].
The mice under test were divided into four groups, which were administered subcutaneously with the three drug solutions and a control (citrate buffer) once a day in a volume of 10 mL/kg. […] The administration was initiated at 10 a.m.
(Blood Sampling and Counting Peripheral Corpuscles) On days 5, 7 and 9 after the start of administration, five or six mice were picked up at random from each group of animals and blood samples were withdrawn through the orbital vein. The sampling of blood was timed to occur 24 h of the final administration. Separate blood samples were taken from untreated mice (five in number) to obtain the value for normal mouse. Peripheral corpuscle counts were obtained with an automatic corpuscle counter F-800 (TOA MEDICAL ELECTRONICS CO., LTD.)

In experiment [3] the test system is C57Bl/6N mice. Briefly: Effectiveness of PTH derivative, daily administration to mouse (peripheral platelet count). Conditions: 200 μg/kg subcutaneously once a day for six days, blood 24 h after final administration. On the procedure: Ten-week old male C57Bl/6N mice as purchased from Japan Charles River Co., Ltd. were used in the experiment.
Drug solutions to be administered were prepared basically from human PTH(1-84) and human PTH(1-34) by the same procedure as in Example 1 to give a drug concentration of 20 μg/mL.
Eighteen mice were divided into three groups, which were administered subcutaneously with the two drug solutions and a control (citrate buffer) for six days on a once-a-day basis in a volume of 10 mL/kg. […] The administration was initiated at 10 a.m.
After 24 h of the final administration, a blood sample was withdrawn from each mouse through the orbital vein. Peripheral corpuscle counts were obtained with an automatic corpuscle counter F-800 (TOA MEDICAL ELECTRONICS CO., LTD)

Experiment [4] deals with Japanese albino rabbits JW/CSK. Briefly: Test for daily administration to rabbit (platelet count). Conditions: 200 μg/kg subcutaneously daily. On the procedure:
Six 12-15 week old male Japanese albino rabbits JW/CSK were used in the experiment. The animals were individually kept in aluminum rabbit bracket cages Rb-1 (350^w×500^d×350^h mm) in a vavarium in a specific pathogen-free environment under the following conditions: temperature, 24±2° C.; humidity, 50±10%; illumination, light turned on at 5:00 and turned off at 19:00; ventilation, 15 changes/hr. Each animal was supplied with 120 g of a radiation-sterilized feed for rabbits RM (purchased from Funahashi Farm) per day. The animals were also allowed to drink to tap water ad libitum from an automatic water feeder.
Human PTH(1-84) was administered in a volume of 2 mL/vial at a concentration of 200 μg/mL. A solvent was also supplied in a volume of 2 mL/vial. Both the drug and the control were stored at −135° C. until use.
PTH (200 μg/kg) was administered to the rabbits subcutaneously at the back of their neck for 13 consecutive days. The solvent was similarly administered in the same volume as the dose of a rh-PTH solution calculated from their body weight.
Blood samples (0.5 mL) were withdrawn from the rabbits through the lateral auricular vein before the administration and on days 2, 6, 9 and 13 during the administration period. […]

B1: human PTH(1-84) (protein, UniProt P01270 32-115, looked up)
Parathyroid hormone: SVSEIQLMHNLGKHLNSMERVEWLRKKLQDVHNFVALGAPLAPRDAGSQRPRKKEDNVLVESHEKSLGEADKADVNVLTKAKSQ
modifications: Parathyroid hormone
Turning to B1, the “platelet counts over the control” value with C57Bl/6N mice [1] (6 h after the administration) and in the experiment with C57Bl/6N mice [1] (9 h after the administration) was “significant increase” throughout. Besides, the platelet count entry in the experiment on C57Bl/6N mice [2] (200 μg/kg subcutaneously once a day) and in the experiment on C57Bl/6N mice [2] (800 μg/kg subcutaneously once a day) was “tendency to increase” each time. For the same molecule, the “platelet count versus the control” value with C57Bl/6N mice [2] (all treated groups (50, 200, 800 μg/kg subcutaneously once a day), day 7) is on record as “significantly higher”. In addition, in the experiment with C57Bl/6N mice [3], the platelet increasing action result is reported as “platelet increasing action”. Moreover, in experiment [4] (day 13), the “platelet count relative to the initial level” value is “substantially returned to the initial level”. In addition, in experiment [4] (increase from day 2 until day 6), the “platelet count relative to the initial value” is “two to four”.
